Source: patent US20240075137A1 (COMPUGEN, published 2024)

T1: human PVRIG on cells (human, UniProt Q6DKI7 1-326)
T1 construct: whole, on cells; over-expressed on HEK cells or endogenous on Jurkat and CD8 T cells; also called hPVRIG; HEK hPVRIG cells
T1 sequence (looked up): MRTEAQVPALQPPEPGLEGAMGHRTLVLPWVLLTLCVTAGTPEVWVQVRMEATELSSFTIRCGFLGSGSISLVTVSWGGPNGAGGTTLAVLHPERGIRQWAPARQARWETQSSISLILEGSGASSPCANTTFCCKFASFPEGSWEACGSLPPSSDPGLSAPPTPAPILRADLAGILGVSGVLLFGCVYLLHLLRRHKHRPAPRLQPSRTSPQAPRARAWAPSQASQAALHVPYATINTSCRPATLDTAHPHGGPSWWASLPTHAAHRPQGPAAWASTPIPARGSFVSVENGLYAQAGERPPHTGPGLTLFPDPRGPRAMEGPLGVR

T2: human TIGIT on cells (human, UniProt Q495A1 22-141)
T2 construct: also called Expi293 human TIGIT over-expressing cells
T2 sequence: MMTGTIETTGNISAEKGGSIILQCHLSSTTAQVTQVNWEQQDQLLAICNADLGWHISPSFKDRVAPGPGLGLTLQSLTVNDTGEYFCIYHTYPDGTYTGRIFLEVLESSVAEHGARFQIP

T3: cynomolgus PVRIG on cells (cynomolgus, UniProt A0A2K5WVV8 41-322)
T3 construct: whole, on cells; also called cPVRIG; expi cPVRIG cells
T3 sequence: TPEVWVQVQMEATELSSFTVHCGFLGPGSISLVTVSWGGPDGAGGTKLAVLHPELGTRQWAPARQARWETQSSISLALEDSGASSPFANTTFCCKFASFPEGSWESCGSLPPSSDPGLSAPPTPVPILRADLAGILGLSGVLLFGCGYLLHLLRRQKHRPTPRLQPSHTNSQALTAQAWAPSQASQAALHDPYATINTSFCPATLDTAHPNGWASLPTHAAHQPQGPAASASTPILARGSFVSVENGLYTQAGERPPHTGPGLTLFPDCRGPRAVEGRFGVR

T4: PVRIG (FACS-based competition assay of FIGS. 7 and 15) (Homo sapiens, UniProt Q6DKI7)
T4 construct: made because the format of the assay is only described in U.S. Ser. No. 15/048,967; also called human PVRIG
T4 sequence (receptor, looked up): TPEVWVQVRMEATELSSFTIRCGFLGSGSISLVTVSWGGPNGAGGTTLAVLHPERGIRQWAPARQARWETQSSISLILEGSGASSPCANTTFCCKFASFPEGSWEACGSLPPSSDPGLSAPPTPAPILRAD

B1: CHA.7.535 (antibody, V domains shown)
VH: EVQLQQSGPELVKPGASVKISCKTSGYTFTKNTMHWVRQSHGKSLEWIGGINPNSGGASFNQKFMGKATLTVDKSSSTAYMELRSLTSEDSAVYYCARDGYDGDWFFDVWGAGTTVTVSS
VL: DIQMNQSPFSLSASLGDTVTITCHASQNIYVWLSWYQQKPGNIPKLLIYKASDLHTGVPSRFSGSGSGTDFTLNISSLQPEDIATYYCQQGQSYPRTFGGGTKLEIK
B2: CHA.7.534 (antibody, V domains shown)
VH: EVQLQQSGAELVKPGASVRLSCTASGFSIRDTYIHWVKQRPEQGLDWIGKIDPANGKSEYDPKFQGRATMTTDTSSNTAYLQLSSLTSEDTAVYYCTRYGYYPYFDVWGAGTTVTVFS
VL: SIVMTQTPKFLLVSAGDRVAITCKASQSVRHDVVWYQQKPGQSPKLLIYYASSRYTGVPDRFTGSGYGTDFTFTISTVQAEDLALYFCLQDFSSPWTFGGGTKLEIK
B3: CHA.7.526 (antibody, V domains shown)
VH: QVQLKESGPGLVAPSQSLSITCTVSGFSLTAYNINWVRQPPGKGLEWLGMIWGDGNTDYNSPLKSRLTISKDNSKSQVFLKMDSLQTDDTARYYCARDLKVRRDSPYTMDYWGQGTSVTVSS
VL: NIMMTQSPSSLAVSAGEKVTMSCKSSQSVLYSSNQKNYLAWYQQKPGQSPKLLIYWASNRESGVPDRFTGSGSGTDFTLTISSVQAEDLAVYYCHQYLSSYTFGGGTKLEIK
B4: CPA.9.057 (Fab, V domains shown)
VH: QVQLQESGPGLVKPSETLSLTCTVSGGSISSSSYYWGWIRQPPGKGLEWIGSIYYSGSTYYNPSLKSRVTISVDTSKNQFSLKLSSVTAADTAVYYCARQGAAAGNPFDIWGQGTMVTVSS
VL: QSVLTQPPSVSGTPGQRVTISCSGSSSNIGSNFVYWHQQLTGTAPKLLIYRNTQRPSGVPDRFSGSKSGTSASLAIGGLRSEDEADYYCATWDDSLSAWVFGGGTKLTVL
notes: phage fab, campaign 2; fab form of CPA.9.057-H4; also called CPA.9.057 (fab)
B5: CPA.9.018 (Fab, V domains shown)
VH: QVQLVESGGGLVQPGGSLRLSCAASGFTFSSYGMHWVRQAPGKGLEWVAFIRYDGSNKYYADSVKGRFTISRDNSKNTLYLQMNSLRAEDTAVYYCAKEMLVQDYYYMDVWGQGTTVTVSS
VL: DVVMTQSPLSLPVSPGEPASISCRSSQNLLHRNGINYLNWYLQKPGQSPQLLIYWGSNRASGVPDRFSGSGSGTDFTLKISRVEAEDVGVYYCMQGLQIPPTFGQGTKVDIK
notes: phage fab, campaign 1; fab form of CPA.9.018-H4; also called CPA.9.018 (fab)
B6: CHA.7.506 (antibody, V domains shown)
VH: QVQLQQSGAELTRPGASVNLSCKASGYTFTSYWMQWVKQRPGQGLEWIGAIYPGDGDTRFNQKFKGKATLTADESSSTAYMQLSSLASEDSAVYYCATYYRYDDYWGQGTTLTVSS
VL: QIVLTQSPAIMSASPGEKVTMTCSASSSVSYMHWYQQKSGTSPKRWIYDTSKLASGVPTRFSGSGSGTSYSLTISSMEAEDAATYYCQQWSSNPYTFGGGTKLEIK

Target: T1, human PVRIG on cells
Experiment: FACS, human PBMC, CD8+ T cells, 10ug/ml

In order of falling “gMFIr Human CD8+ T cells” value:
1. B2  1.96
2. B3  1.71
3. B1  1.28

Target: T1, human PVRIG on cells
Experiment: FACS, HEK hPVRIG cells (HEK OE)

In order of falling EC50:
1. B1  3.67 nM
2. B3  2.99 nM
3. B2  1.87 nM

Target: T1, human PVRIG on cells
Experiment: FACS, human PBMC, CD8+ T cells, 10ug/ml
Remark: another data set of the same source

In order of falling “gMFIr Human CD8+ T cells” value:
1. B2  1.96
2. B3  1.71
3. B1  1.28

Target: T2, human TIGIT on cells
Experiment: flow cytometry of fab; MFI on human TIGIT over-expressing Expi293 / MFI on parental Expi293

In order of rising “MFIr (OE/Par) hTIGIT” value:
1. B5  16
2. B4  30

Target: T1, human PVRIG on cells
Experiment: FACS, Jurkat cells, relative to control, 3.3ug/ml

In order of falling “gMFIr Jurkat” value:
1. B2  5.05
2. B3  3.98
3. B1  2.79

Target: T3, cynomolgus PVRIG on cells
Experiment: FACS, expi cPVRIG over expi parental cells, 3.3ug/ml

In order of falling “gMFIr Expi cyno OE/par” value:
1. B2  46.3
2. B1  0.82
3. B3  0.79
4. B6  0.77

Target: T4, PVRIG (FACS-based competition assay of …)
Experiment: FACS-based competition assay of PVRIG blocking; format and competitor not given

In order of falling IC50:
1. B1  821 nM
2. B2  181 nM
3. B3  58.9 nM
4. B6  31.6 nM

Target: T1, human PVRIG on cells
Experiment: FACS, human PBMC, CD56 int. NK cells, 10ug/ml

In order of rising “gMFIr Human CD56 int. NK” value:
1. B3  2.08
2. B1  2.24
3. B2  2.6

Target: T4, PVRIG (FACS-based competition assay of …)
Experiment: FACS-based competition assay of PVRIG blocking; format and competitor not given
Remark: another data set of the same source

In order of falling IC50:
1. B1  821 nM
2. B2  181 nM
3. B3  58.9 nM
4. B6  31.6 nM

Target: T3, cynomolgus PVRIG on cells
Experiment: FACS, expi cPVRIG over expi parental cells, 3.3ug/ml
Remark: another data set of the same source

In the case of B6, the “gMFIr Expi cyno OE/par” value is reported as 0.77.

Target: T1, human PVRIG on cells
Experiment: FACS, human PBMC, CD56 int. NK cells, 10ug/ml
Remark: another data set of the same source

In order of rising “gMFIr Human CD56 int. NK” value:
1. B3  2.08
2. B1  2.24
3. B2  2.6

Target: T1, human PVRIG on cells
Experiment: FACS, HEK hPVRIG over HEK parental cells, 3.3ug/ml

In order of rising “gMFIr HEK OE/par” value:
1. B6  0.76
2. B1  40.4
3. B2  43.7
4. B3  47.3

Target: T3, cynomolgus PVRIG on cells
Experiment: FACS, expi cPVRIG over expi parental cells, 3.3ug/ml
Remark: another data set of the same source

In order of rising “gMFIr Expi cyno OE/par” value:
1. B3  0.79
2. B1  0.82
3. B2  46.3
